# Experimental data published in patent US7994133B2, “Isozyme-specific antagonists of protein kinase C” (The Board of Trustees of the Leland Stanford Junior …, priority 2003, dated 2011).
# B1: D(86)N: εPKC mutant wherein D at position 86 of ΨεRACK in εPKC is substituted with an N (protein)
# chain: MVVFNGLLKIKICEAVSLKPTAWSLRHAVGPRPATFLLDPYIALNVDDSRIGQTATKQKTNSPAWHDEFVTDVCNGRKIELAVFHNAPIGYDDFVANCTIQFEELLQNGSRHFEDWIDLEPEGRVYVIIDLSGSSGEAPKDNEERVFRERMRPRKRQGAVRRRVHQVNGHKFMATYLRQPTYCSHCRDFIWGVIGKQGYQCQVCTCVVHKRCHELIITKCAGLKKQETPDQVGSQRFSVNMPHKFGIHNYKVPTFCDHCGSLLWGLLRQGLQCKVCKMNVHRRCETNVAPNCGVDARGIAKVLADLGVTPDKITNSGQRRKKLIAGAESPQPASGGSPSEEDRSKSAPTSPCDQEIKELENNIRKALSFDNRGEEHRAASSPDGQLMSPGENGEVRQGQAKRLGLDEFNFIKVLGKGSFGKVMLAELKGKDEVYAVKVLKKDVILQDDDVDCTMTEKRILALARKHPYLTQLYCCFQTKDRLFFVMEYVNGGDLMFQIQRSRKFDEPRSRFYAAEVTSALMFLHQHGVIYRDLKLDNILLDAEGHCKLADFGMCKEGILNGVTTTTFCGTPDYIAPEILQELEYGPSVDWWALGVLMYEMMAGQPPFEADNEDDLFESILHDDVLYPVWLSKEAVSILKAFMTKNPHKRLGCVASQNGEDAIKQHPFFKEIDWVLLEQKKIKPPFKPRIKTKRDVNNFDQDFTREEPVLTLVDEAIVKQINQEEFKGFSYFGEDLMP
# B2: Wt: wild type εPKC, human construct (protein)
# chain: MVVFNGLLKIKICEAVSLKPTAWSLRHAVGPRPATFLLDPYIALNVDDSRIGQTATKQKTNSPAWHDEFVTDVCNGRKIELAVFHDAPIGYDDFVANCTIQFEELLQNGSRHFEDWIDLEPEGRVYVIIDLSGSSGEAPKDNEERVFRERMRPRKRQGAVRRRVHQVNGHKFMATYLRQPTYCSHCRDFIWGVIGKQGYQCQVCTCVVHKRCHELIITKCAGLKKQETPDQVGSQRFSVNMPHKFGIHNYKVPTFCDHCGSLLWGLLRQGLQCKVCKMNVHRRCETNVAPNCGVDARGIAKVLADLGVTPDKITNSGQRRKKLIAGAESPQPASGGSPSEEDRSKSAPTSPCDQEIKELENNIRKALSFDNRGEEHRAASSPDGQLMSPGENGEVRQGQAKRLGLDEFNFIKVLGKGSFGKVMLAELKGKDEVYAVKVLKKDVILQDDDVDCTMTEKRILALARKHPYLTQLYCCFQTKDRLFFVMEYVNGGDLMFQIQRSRKFDEPRSRFYAAEVTSALMFLHQHGVIYRDLKLDNILLDAEGHCKLADFGMCKEGILNGVTTTTFCGTPDYIAPEILQELEYGPSVDWWALGVLMYEMMAGQPPFEADNEDDLFESILHDDVLYPVWLSKEAVSILKAFMTKNPHKRLGCVASQNGEDAIKQHPFFKEIDWVLLEQKKIKPPFKPRIKTKRDVNNFDQDFTREEPVLTLVDEAIVKQINQEEFKGFSYFGEDLMP
# Assays:
# CHO cells = experiment: Real-time confocal imaging of PMA-induced εPKC translocation with mathematical modeling; format: cell-based; settings: for C3 / C5 / C1: constant of bi-exponential fit; for C1: level of εPKC in the cytosol at steady state; for k − 2: rate of detachment from the membrane
# Experimental: CHO cells were grown on glass coverslips, and serum-starved as described in Example 4. For each experiment, cells were transferred to a commercially available metal coverslip holder (Molecular Probes) in which the coverslip formed the bottom of a 1 ml bath. The media was then replaced with extracellular buffer (120 mM NaCl, 5 mM KCl, 1.5 mM CaCl2, 1.5 mM MgCl2, 20 mM HEPES and 30 mM glucose). Cells were stimulated by either PMA (100 nM), or with ATP (1 mM) in extracellular buffer. Fluorescence images of GFP-tagged constructs were obtained using the 488 nm excitation line of a laser scanning confocal microscope (Pascal, Zeiss) and emission was collected through a 505-550 nm band pass filter. Cells were imaged on the stage of an inverted microscope (Axiovert 100M) using a 40× Zeiss Plan-apo oil immersion objective with 1.2 numerical aperture (NA). For dual color imaging of CFP and YFP fusion proteins, a spinning disk Nipkow confocal microscope was used. Cells were viewed using an inverted Olympus IX70 microscope with a 40× oil immersion Olympus objective (1.35NA) and images were acquired with a CCD camera (Hamamatsu) and 2×2 pixel binning. CFP was excited with the 442 nm laser line of a helium-cadmium laser (Kimmon) whereas YFP was imaged with the 514 nm line of an argon ion laser (Melles-Griot). To selectively photobleach YFP labeled proteins in local regions of the cytoplasm for FRAP experiments, the 514 nm line of an Enterprise laser (Coherent) at maximal power (˜400 mW) was used. For these experiments, a 60× oil immersion objective was used (1.4NA). Under these conditions, and by placing an iris in the beam path, it was possible to bleach 80% of the YFP fluorescence in 500 ms in an area of the cytosol measuring approximately 35 um2. Real time confocal images were acquired every 10-15 seconds for 20 minutes for experiments utilizing PMA, and every 5 seconds for a total duration of 3 minutes in the case of cells stimulated with ATP. Reagents were added to the cell chamber after the fifth image in each time series. […] All images were acquired at room temperature. Images were exported as 12 or 16 bit files and changes in fluorescence intensity were measured using MetaMorph® data analysis software (Universal Imaging Corp.). To monitor the translocation of PKC, a small region of interest was selected in the cytosol of each cell and fluorescence intensity values graphed against time after subtraction of background values and normalized so that the initial fluorescence was 100%. Averages of 10-15 cells from three independent experiments were used. To determine statistical significance, a 1 tail type 2 T-test (Microsoft excel) was used.
# Mathematical modeling was obtained from data of cells expressing similar levels of the different εPKC ΨεRACK mutants. Non-linear least squares curve fitting analysis was performed using the EViews software (QMS) and differential equation analysis was performed using Berkeley Madonna™. All other methods for this Example were performed as described, for example, in Examples 4 and 6.
# Fluorescence time courses were analyzed by a non-linear regression analysis with single and biexponential equations (1 and 2) as previously done by Nalefski and Newton Nalefski, E. A. & Newton, A. C., Biochemistry 40:13216-13229 (2001)], where I(t) is the concentration of observed molecules in the cytosol at time (t), and C1-5 are constants. I(t)=C1+C2e^(−C3(t)) 1. I(t)=C1+C2e^(−C3(t))+C4e^(−C5(t)) 2. Residual error graphs obtained using single exponential equations (FIG. 8A) and using biexponential equations (FIG. 8B) for the D(86)A εPKC mutant translocation process is shown in FIGS. 8A-8D. […] This process can be described as follows:
# The value of C1 corresponds to the level of εPKC in the cytosol at steady state. It was next determined whether the hypothesis that the values obtained for C1 and C3 of D(86)A and Wt εPKCs are statistically equivalent. […]
# [1] = Fluorescence recovery after photobleaching (FRAP) of cytoplasmic εPKCs; format: cell-based; settings: average of at least 10 cells
# Experimental: CHO cells were grown on glass coverslips, and serum-starved as described in Example 4. For each experiment, cells were transferred to a commercially available metal coverslip holder (Molecular Probes) in which the coverslip formed the bottom of a 1 ml bath. The media was then replaced with extracellular buffer (120 mM NaCl, 5 mM KCl, 1.5 mM CaCl2, 1.5 mM MgCl2, 20 mM HEPES and 30 mM glucose). Cells were stimulated by either PMA (100 nM), or with ATP (1 mM) in extracellular buffer. Fluorescence images of GFP-tagged constructs were obtained using the 488 nm excitation line of a laser scanning confocal microscope (Pascal, Zeiss) and emission was collected through a 505-550 nm band pass filter. Cells were imaged on the stage of an inverted microscope (Axiovert 100M) using a 40× Zeiss Plan-apo oil immersion objective with 1.2 numerical aperture (NA). For dual color imaging of CFP and YFP fusion proteins, a spinning disk Nipkow confocal microscope was used. Cells were viewed using an inverted Olympus IX70 microscope with a 40× oil immersion Olympus objective (1.35NA) and images were acquired with a CCD camera (Hamamatsu) and 2×2 pixel binning. […] Under these conditions, and by placing an iris in the beam path, it was possible to bleach 80% of the YFP fluorescence in 500 ms in an area of the cytosol measuring approximately 35 um2. […] Images were exported as 12 or 16 bit files and changes in fluorescence intensity were measured using MetaMorph® data analysis software (Universal Imaging Corp.). To monitor the translocation of PKC, a small region of interest was selected in the cytosol of each cell and fluorescence intensity values graphed against time after subtraction of background values and normalized so that the initial fluorescence was 100%. […]
# Different translocation rates may reflect differences in overall mobility (diffusion) of the εPKCs in cells. Therefore, fluorescence recovery after photobleaching (FRAP) of the cytoplasmic enzyme was measured; mobility of εPKCs was measured by monitoring the time required for the fluorescence to recover in a bleached region. […]
Molecule,"steady state level of fluorescence in the cytoplasm (CHO cells; 100 nM PMA, GFP fusion)","time at which translocation to the cell periphery became apparent (CHO cells; 100 nM PMA, GFP fusion)",C3 (CHO cells; 100 nM PMA),C5 (CHO cells; 100 nM PMA),C1 (CHO cells; 100 nM PMA),"k2 (CHO cells; rate of binding to the membrane, simulations using differential equations)","k − 1 (CHO cells; rate of closing, simulations using differential equations)",k − 2 (CHO cells; simulations using differential equations),"k1 (CHO cells; rate of opening, simulations using differential equations, k1 = C5 not valid)",time to fifty percent FRAP [1],"rate of translocation (decrease of fluorescence in the cytoplasm) (CHO cells; 100 nM PMA, GFP fusion)","time after PMA stimulation at which the enzyme was found at the cell periphery (CHO cells; YFP-εPKC D(86)A and CFP-εPKC Wt co-transfected in the same cell, 100 nM PMA)",(k2 + k − 2) = C3 (CHO cells; calculated with k-1 negligible),k − 2/(k2 + k − 2) = C1/100 (CHO cells; calculated with k-1 negligible),"k − 1 (CHO cells; rate of closing in the cytosol, assumed negligible)",k − 2 (CHO cells; calculated with k-1 negligible),"k2 (CHO cells; rate of εPKC binding to the membrane, calculated with k-1 negligible)","k1 = C5 (CHO cells; rate of εPKC opening in the cytosol, calculated with k-1 negligible)"
B1,higher level,5 min,0.010 ± 0.0003,0.034 ± 0.004,38.38 ± 0.254,0.01138,0.005,0.0052,0.0135,9.1 ± 1.6 s,–,–,–,–,–,–,–,–
B2,–,2 to 3 min,0.016 ± 0.004,0.009 ± 0.001,30.46 ± 0.991,–,–,–,–,9.0 ± 1.2 s,slower rate,> 10 min,0.016 ± 0.004,0.305 ± 0.010,~0,0.005 ± 0.0011,0.011 ± 0.002,0.009 ± 0.001
